In the supplement of paper PMC5998384:

Tested on: HeLa Kyoto
Test: melting temperature (median over replicates), in situ; higher = more thermally stable
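Further: HeLa Kyoto cells synchronized by double thymidine or nocodazole block, proteins quantified by TMT10plex mass spectrometry, three independent biological replicates.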

## FLNC
Cell cycle stage: mitosis
  melting temperature: 55 °C

## MAEVPPGPSSLLPPPAPPAPAAVEPRCPFPAGAALACCSEDEEDDEEHEGGGSRSPAGGESATVAAKGHPCLRCPQPPQEQQQLNGLISPELRHLRAAASLKSKVLSVAEVAATTATPDGGPRATATKGAGVHSGERPPHSLSSNARTAVPSPVEAAAASDPAAARNGLAEGTEQEEEEEDEQVRLLSSSLTADCSLRSPSGREVEPGEDRTIRYVRYESELQMPDIMRLITKDLSEPYSIYTYRYFIHNWPQLCFLAMVGEECVGAIVCKLDMHKKMFRRGYIAMLAVDSKYRRNGIGTNLVKKAIYAMVEGDCDEVVLETEITNKSALKLYENLGFVRDKRLFRYYLNGVDALRLKLWLR [NAA30]
Cell cycle stage: G1/S
  melting temperature: 51.9 °C

## MAGSDTAPFLSQADDPDDGPVPGTPGLPGSTGNPKSEEPEVPDQEGLQRITGLSPGRSALIVAVLCYINLLNYMDRFTVAGVLPDIEQFFNIGDSSSGLIQTVFISSYMVLAPVFGYLGDRYNRKYLMCGGIAFWSLVTLGSSFIPGEHFWLLLLTRGLVGVGEASYSTIAPTLIADLFVADQRSRMLSIFYFAIPVGSGLGYIAGSKVKDMAGDWHWALRVTPGLGVVAVLLLFLVVREPPRGAVERHSDLPPLNPTSWWADLRALARNPSFVLSSLGFTAVAFVTGSLALWAPAFLLRSRVVLGETPPCLPGDSCSSSDSLIFGLITCLTGVLGVGLGVEISRRLRHSNPRADPLVCATGLLGSAPFLFLSLACARGSIVATYIFIFIGETLLSMNWAIVADILLYVVIPTRRSTAEAFQIVLSHLLGDAGSPYLIGLISDRLRRNWPPSFLSEFRALQFSLMLCAFVGALGGAAFLGTAIFIEADRRRAQLHVQGLLHEAGSTDDRIVVPQRGRSTRVPVASVLI [SPNS1]
Cell cycle stage: mitosis
  melting temperature: 62 °C

## MAHAHIQGGRRAKSRFVVCIMSGARSKLALFLCGCYVVALGAHTGEESVADHHEAEYYVAAVYEHPSILSLNPLALISRQEALELMNQNLDIYEQQVMTAAQKDVQIIVFPEDGIHGFNFTRTSIYPFLDFMPSPQVVRWNPCLEPHRFNDTEVLQRLSCMAIRGDMFLVANLGTKEPCHSSDPRCPKDGRYQFNTNVVFSNNGTLVDRYRKHNLYFEAAFDVPLKVDLITFDTPFAGRFGIFTCFDILFFDPAIRVLRDYKVKHVVYPTAWMNQLPLLAAIEIQKAFAVAFGINVLAANVHHPVLGMTGSGIHTPLESFWYHDMENPKSHLIIAQVAKNPVGLIGAENATGETDPSHSKFLKILSGDPYCEKDAQEVHCDEATKWNVNAPPTFHSEMMYDNFTLVPVWGKEGYLHVCSNGLCCYLLYERPTLSKELYALGVFDGLHTVHGTYYIQVCALVRCGGLGFDTCGQEITEATGIFEFHLWGNFSTSYIFPLFLTSGMTLEVPDQLGWENDHYFLRKSRLSSGLVTAALYGRLYERD [BTD]
Cell cycle stage: mitosis
  melting temperature: 58 °C

## MAMEGYWRFLALLGSALLVGFLSVIFALVWVLHYREGLGWDGSALEFNWHPVLMVTGFVFIQGIAIIVYRLPWTWKCSKLLMKSIHAGLNAVAAILAIISVVAVFENHNVNNIANMYSLHSWVGLIAVICYLLQLLSGFSVFLLPWAPLSLRAFLMPIHVYSGIVIFGTVIATALMGLTEKLIFSLRDPAYSTFPPEGVFVNTLGLLILVFGALIFWIVTRPQWKRPKEPNSTILHPNGGTEQGARGSMPAYSGNNMDKSDSELNSEVAARKRNLALDEAGQRSTM [CYBRD1]
Cell cycle stage: mitosis
  melting temperature: 53.6 °C

## MAPQRRAATKAPEGNGAAERRNRSSTKKDRAPREVQRLWQRPWLRTAGLGAGFVLTALLLWSSLGADDGVAEVLARRGEVVAGRFIEVPCSEDYDSHRRFEGCTPRKCGRGVTDVVITREEAERIRSVAEKGLSLGGSDGGASILDLHSGALSVGKHFVNLYRYFGDKIQNIFSEEDFRLYREVRQKVQLTIAEAFGISASSLHLTKPTFFSRINSTEARTAHDEYWHAHVDKVTYGSFDYTSLLYLSNYLEDFGGGRFMFMEEGANKTVEPRAGRVSFFTSGSENLHRVEKVHWGTRYAITIAFSCNPDHGIEDPAFP [OGFOD3]
Cell cycle stage: mitosis
  melting temperature: 53.1 °C

## MARRRRRACIALFLVLLFAFGTLMGLRTLKAPDGLPALGPGLELAPFERRPEGAPAPAARAPAAPAAPPPPPPPPRTADPGGSPGPAPAEAEPAPVQSLRVYSDLHAFYYSWYGSPRREGHYIHWDHVMVPHWDPKISASYPRGRHSPPDDLGSSFYPELGPYSSRDPEVLREHMTQLKEAAIGVLVLSWYPPGMADDNGEPSDDLVPAILDTAHQYSIQVAFHIQPYKGRDDITVHDNIKYIIDTYGSHGAFYRYKNSMGKSLPLFYIYDSYLTSPEAWAHLLTPNGPHSIRNTPYDGVFIALLVEEGHTHDILAAGFDGMYTYFASNGFSFGSSHQNWKAVKNFCDANNLMFIPSVGPGYIDTSIRPWNNHNTRNRVNGKYYETALQAALTVRPEIVSITSFNEWHEGTQIEKAIPKKTPTRLYLDYLPHQPSLYLELTRRWAEHFIKEKEQWLM [MANEAL]
Cell cycle stage: mitosis
  melting temperature: 54.1 °C

## MASRAGPRAAGTDGSDFQHRERVAMHYQMSVTLKYEIKKLIYVHLVIWLLLVAKMSVGHLRLLSHDQVAMPYQWEYPYLLSILPSLLGLLSFPRNNISYLVLSMISMGLFSIAPLIYGSMEMFPAAQQLYRHGKAYRFLFGFSAVSIMYLVLVLAVQVHAWQLYYSKKLLDSWFTSTQEKKHK [JAGN1]
Cell cycle stage: mitosis
  melting temperature: 54.8 °C

## MATETVELHKLKLAELKQECLARGLETKGIKQDLIHRLQAYLEEHAEEEANEEDVLGDETEEEETKPIELPVKEEEPPEKTVDVAAEKKVVKITSEIPQTERMQKRAERFNVPVSLESKKAARAARFGISSVPTKGLSSDNKPMVNLDKLKERAQRFGLNVSSISRKSEDDEKLKKRKERFGIVTSSAGTGTTEDTEAKKRKRAERFGIA [SARNP]
Cell cycle stage: G1/S
  melting temperature: 57.9 °C
Cell cycle stage: mitosis
  melting temperature: 54.3 °C

## MDEESLESALQTYRAQLQQVELALGAGLDSSEQADLRQLQGDLKELIELTEASLVSVRKSSLLAALDEERPGRQEDAEYQAFREAITEAVEAPAAARGSGSETVPKAEAGPESAAGGQEEEEGEDEEELSGTKVSAPYYSSWGTLEYHNAMVVGTEEAEDGSAGVRVLYLYPTHKSLKPCPFFLEGKCRFKENCRFSHGQVVSLDELRPFQDPDLSSLQAGSACLAKHQDGLWHAARITDVDNGYYTVKFDSLLLREAVVEGDGILPPLRTEATESDSDSDGTGDSSYARVVGSDAVDSAQSSALCPSLAVVGSDAVDSGTCSSAFAGWEVHTRGIGSRLLTKMGYEFGKGLGRHAEGRVEPIHAVVLPRGKSLDQCVETLQKQTRVGKAGTNKPPRCRGRGARPGGRPAPRNVFDFLNEKLQGQAPGALEAGAAPAGRRSKDMYHASKSAKRALSLRLFQTEEKIERTQRDIRSIQEALARNAGRHSVASAQLQEKLAGAQRQLGQLRAQEAGLQQEQRKADTHKKMTEF [ZGPAT]
Cell cycle stage: G1/S
  melting temperature: 47.5 °C
Cell cycle stage: mitosis
  melting temperature: 49.3 °C

## MDHSHHMGMSYMDSNSTMQPSHHHPTTSASHSHGGGDSSMMMMPMTFYFGFKNVELLFSGLVINTAGEMAGAFVAVFLLAMFYEGLKIARESLLRKSQVSIRYNSMPVPGPNGTILMETHKTVGQQMLSFPHLLQTVLHIIQVVISYFLMLIFMTYNGYLCIAVAAGAGTGYFLFSWKKAVVVDITEHCH [SLC31A1]
Cell cycle stage: G1/S
  melting temperature: 56.5 °C
Cell cycle stage: mitosis
  melting temperature: 54.9 °C

## MEMSGLSFSEMEGCRNLLGLLDNDEIMALCDTVTNRLVQPQDRQDAVHAILAYSQSAEELLRRRKVHREVIFKYLATQGIVIPPATEKHNLIQHAKDYWQKQPQLKLKETPEPVTKTEDIHLFQQQVKEDKKAEKVDFRRLGEEFCHWFFGLLNSQNPFLGPPQDEWGPQHFWHDVKLRFYYNTSEQNVMDYHGAEIVSLRLLSLVKEEFLFLSPNLDSHGLKCASSPHGLVMVGVAGTVHRGNTCLGIFEQIFGLIRCPFVENTWKIKFINLKIMGESSLAPGTLPKPSVKFEQSDLEAFYNVITVCGTNEVRHNVKQASDSGTGDQV [C3ORF38]
Cell cycle stage: G1/S
  melting temperature: 50.4 °C
Cell cycle stage: mitosis
  melting temperature: 50.9 °C

## MEPGTNSFRVEFPDFSSTILQKLNQQRQQGQLCDVSIVVQGHIFRAHKAVLAASSPYFCDQVLLKNSRRIVLPDVMNPRVFENILLSSYTGRLVMPAPEIVSYLTAASFLQMWHVVDKCTEVLEGNPTVLCQKLNHGSDHQSPSSSSYNGLVESFELGSGGHTDFPKAQELRDGENEEESTKDELSSQLTEHEYLPSNSSTEHDRLSTEMASQDGEEGASDSAEFHYTRPMYSKPSIMAHKRWIHVKPERLEQACEGMDVHATYDEHQVTESINTVQTEHTVQPSGVEEDFHIGEKKVEAEFDEQADESNYDEQVDFYGSSMEEFSGERSDGNLIGHRQEAALAAGYSENIEMVTGIKEEASHLGFSATDKLYPCQCGKSFTHKSQRDRHMSMHLGLRPYGCGVCGKKFKMKHHLVGHMKIHTGIKPYECNICAKRFMWRDSFHRHVTSCTKSYEAAKAEQNTTEAN [ZBTB43]
Cell cycle stage: mitosis
  melting temperature: 55 °C
